From PMC2844151

Molecular target: T1, Mycobacterium tuberculosis cAMP receptor protein (Rv3676) (Mycobacterium tuberculosis), P9WMH3
T1 chain: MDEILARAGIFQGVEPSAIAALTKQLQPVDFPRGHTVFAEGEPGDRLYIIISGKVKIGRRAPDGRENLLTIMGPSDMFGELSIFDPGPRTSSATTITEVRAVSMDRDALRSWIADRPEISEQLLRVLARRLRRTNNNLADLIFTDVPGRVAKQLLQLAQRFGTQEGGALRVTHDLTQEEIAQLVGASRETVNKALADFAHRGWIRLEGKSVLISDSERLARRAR
Assay: cross-linking
Settings: remark: other sources report otherwise

B1: Mycobacterium tuberculosis cAMP receptor protein (Rv3676), P9WMH3 1-224 (natural protein)
chain: T1 chain
Binder B1 has a stoichiometry N of 2.
